This is an account of results in paper PMC5063714 (Journal of medicinal chemistry, 2016).

Assay in all cases: AlphaScreen or HTRF
In general terms: Alpha assays give light when donor and acceptor beads are brought close together.

For experiment [1], the target named is chromodomain of CBX5 (human).
Experiment [2] has as its target chromodomain of CBX5 (human). The source holds these as a separate data set.
The target in experiment [3] is chromodomain of CBX5 (human). The source holds these as a separate data set.
Experiment [4] has as its target T1, chromodomain of CBX4 (human, UniProt O00257-1 8-65).
T1 sequence (looked up): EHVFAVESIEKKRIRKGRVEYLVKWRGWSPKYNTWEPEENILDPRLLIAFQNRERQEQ

The target in experiment [5] is T2, chromodomain of CDYL2 (human, UniProt Q8N8U2 1-75).
T2 sequence (looked up): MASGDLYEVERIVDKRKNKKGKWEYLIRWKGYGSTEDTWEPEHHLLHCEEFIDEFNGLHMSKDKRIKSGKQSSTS

Experiment [6] deals with T3, chromodomain of CBX7 (human, UniProt O95931 8-62).
T3 sequence (looked up): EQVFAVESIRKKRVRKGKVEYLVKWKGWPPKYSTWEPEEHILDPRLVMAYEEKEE

Experiment [7] addresses chromodomain of CBX5 (human). This is another data set of the same source.
The target in experiment [8] is T1, chromodomain of CBX4. This is another data set of the same source.
For experiment [9], the target named is T2, chromodomain of CDYL2. The source holds these as a separate data set.
Experiment [10] has as its target T3, chromodomain of CBX7. This is another data set of the same source.

Where two headings read alike, the source gives them in different places. Square brackets hold non-standard residues; d marks the D form. Side chains are listed from the residue outwards. Ends that are not written are not given here. * marks the point of attachment. pyrrolidinyl = lysine with its side-chain amine cyclized into a pyrrolidine ring; azepanyl = lysine epsilon-N closed into a 7-membered azepane ring; piperidinyl = lysine epsilon-N closed into a piperidine ring; Lys(Me3) = C[N+](C)(C)CCCC[C@H](N)C(=O)O; NMeF = CN[C@@H](Cc1ccccc1)C(=O)O; dicyclobutyl = not defined here; diethyl = not defined here; Cyclopentyl = C1CCC(*)C1; cyclohexyl = C1CCC(*)CC1; Bz = O=C(c1ccccc1)*; iPr = CC(C)*

Chain of chromodomain of CBX5 (human) (Q9UN86 18-75): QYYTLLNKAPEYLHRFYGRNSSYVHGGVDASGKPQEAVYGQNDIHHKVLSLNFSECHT

With Bz-GFALK(piperidinyl)S-OMe [compound 20], the IC50 with chromodomain of CBX5 [1] is more than 60000 nM.
Same read-out and setting: next, Bz-GFALK(cyclohexyl)S-OMe [compound 14]: more than 60000 nM.
As to Bz-GFALK(dimethyl)S-OMe [compound 17], the IC50 in the experiment with chromodomain of CBX5 [1] is more than 60000 nM.
With Bz-GFAL[Lys(Me3)]S-OMe [compound 6], in the experiment with chromodomain of CBX5 [2], the concentration for half-maximal inhibition (IC50) was more than 60000 nM.

B1: compound 3 (peptide)
peptide: Bz-Ala-Leu-[Lys(Me3)]-NHMe
SMILES: CNC(=O)[C@H](CCCC[N+](C)(C)C)NC(=O)[C@H](CC(C)C)NC(=O)[C@H](C)NC(=O)c1ccccc1
In the experiment with chromodomain of CBX5 [2], B1 yielded a half-inhibitory concentration (IC50) of more than 60000 nM.
As to {4‑Me‑Bz}-FALK(diethyl)S-OMe (reading uncertain) [compound 30], the IC50 with chromodomain of CBX5 [3] came out at 21000 nM; with chromodomain of CBX4 [4] it was 770 nM; in the experiment with chromodomain of CDYL2 [5] it was 280 nM; in the experiment with chromodomain of CBX7 [6], 220 nM.
For the molecule {4‑tBu‑Bz}-FALK(diethyl)S (reading uncertain; also: C-terminal carbonyl removed entirely (R3 = -H)) [compound 46], the IC50 is more than 60000 nM with chromodomain of CBX5 [7], 200 nM in the experiment with chromodomain of CBX4 [8], 410 nM in the experiment with chromodomain of CDYL2 [9] and 75 nM with chromodomain of CBX7 [10].
Molecule Bz-GFALK(diethyl)S-OMe (reading uncertain) [compound 18] registered an IC50 with chromodomain of CBX5 [1] of more than 60000 nM.
As for {4‑Et‑Bz}-FALK(diethyl)S-OMe (reading uncertain) [compound 31], the IC50 was 14000 nM with chromodomain of CBX5 [3], 190 nM with chromodomain of CBX4 [4], 100 nM with chromodomain of CDYL2 [5] and 81 nM with chromodomain of CBX7 [6].
In the experiment with chromodomain of CBX5 [1], Bz-GFALK(iPr)S-OMe [compound 12] gave an IC50 of more than 60000 nM.
Molecule Bz-GFALK(norbornyl)S-OMe [compound 15] displayed an IC50 with chromodomain of CBX5 [1] of more than 60000 nM.
On the same count and under the same terms, then Bz-GFALK([norbornyl-Ac])S-OMe [compound 23], with more than 60000 nM.
As to {4‑tBu‑Bz}-FALK(diethyl)S-NMe2 (reading uncertain) [compound 45], the IC50 is more than 60000 nM in the experiment with chromodomain of CBX5 [7], 140 nM in the experiment with chromodomain of CBX4 [8], 360 nM with chromodomain of CDYL2 [9] and 47 nM with chromodomain of CBX7 [10].
Regarding Bz-GFALK(pyrrolidinyl)S-OMe [compound 19], the half-inhibitory concentration (IC50) in the experiment with chromodomain of CBX5 [1] is more than 60000 nM.
Same read-out and setting: then Bz-GFALKS-OMe [compound 11], with more than 60000 nM.
With {4‑tBu‑Bz}-FAL[Lys(Me3)]S-OMe [compound 39], the IC50 is more than 60000 nM with chromodomain of CBX5 [3] and 110 nM with chromodomain of CDYL2 [5].
{2‑Me‑Bz}-FALK(diethyl)S-OMe (reading uncertain) [compound 28]: the IC50 with chromodomain of CBX5 [3] is more than 60000 nM; with chromodomain of CBX4 [4], 58000 nM; in the experiment with chromodomain of CDYL2 [5], 560 nM; in the experiment with chromodomain of CBX7 [6] it was 25000 nM.
For Bz-FALK(diethyl)S-OMe (reading uncertain) [compound 27], the IC50 with chromodomain of CBX5 [3] amounted to 6900 nM; in the experiment with chromodomain of CBX4 [4], 3000 nM; in the experiment with chromodomain of CDYL2 [5], 340 nM; in the experiment with chromodomain of CBX7 [6] it was 1200 nM.
As to Bz-GFALK(adamantyl)S-OMe [compound 16], the IC50 with chromodomain of CBX5 [1] is more than 60000 nM.
On the same count and under the same terms, then Bz-GFALK(tetramethylguanidino)S-OMe [compound 24], with more than 60000 nM.
In the case of {4‑CO2Me‑Bz}-FALK(diethyl)S-OMe (reading uncertain) [compound 33], the IC50 with chromodomain of CBX5 [3] stood at 26000 nM; in the experiment with chromodomain of CBX4 [4], 1200 nM; with chromodomain of CDYL2 [5] it was 110 nM; with chromodomain of CBX7 [6], 570 nM.
In the case of Bz-GFALK(azepanyl)S-OMe [compound 21], in the experiment with chromodomain of CBX5 [1], the IC50 is more than 60000 nM.
As for {4‑iPr‑Bz}-FALK(diethyl)S-OMe (reading uncertain) [compound 32], the IC50 in the experiment with chromodomain of CBX5 [3] came out at 38000 nM; with chromodomain of CBX4 [4], 160 nM; with chromodomain of CDYL2 [5], 100 nM; with chromodomain of CBX7 [6] it was 61 nM.
For {4‑CF3‑Bz}-FALK(diethyl)S-OMe (reading uncertain) [compound 34], in that order: 33000 nM, 480 nM, 130 nM and 230 nM.

B2: compound 1 (UNC3866) (peptide)
peptide: FALKS
modifications: N-terminal para-t-butyl benzoyl cap; diethyl-lysine in lieu of Kme3; C-terminal methyl ester
In the case of B2, the IC50 with chromodomain of CBX5 [3] is more than 60000 nM; in the experiment with chromodomain of CBX4 [4], 83 nM; in the experiment with chromodomain of CDYL2 [5] it was 140 nM; in the experiment with chromodomain of CBX7 [6], 37 nM.

B3: compound 10 (peptide)
peptide: GFALKS
modifications: N-terminal benzoyl (Bz) cap; N-methylated glycine amide (N(me)Gly); trimethyl-lysine (Kme3); C-terminal methyl ester (Ser-OMe)
With B3, the IC50 in the experiment with chromodomain of CBX5 [2] was more than 60000 nM.
Bz-GFALK(dicyclobutyl)S-OMe (reading uncertain) [compound 22] gave a concentration for half-maximal inhibition (IC50) with chromodomain of CBX5 [1] of more than 60000 nM.
On to {t‑butylbenzyl}-FALK(diethyl)S-OMe (reading uncertain) [compound 36], for which the concentration for half-maximal inhibition (IC50) in the experiment with chromodomain of CBX5 [3] is more than 60000 nM; in the experiment with chromodomain of CBX4 [4] it was 9700 nM; with chromodomain of CDYL2 [5], 200 nM; with chromodomain of CBX7 [6] it was 4400 nM.
In the experiment with chromodomain of CBX5 [1], Bz-GFALK(Cyclopentyl)S-OMe [compound 13] showed an IC50 of more than 60000 nM.
Regarding Bz-GFALKS-OMe (not fully specified (residues 3, 5)) [compound 8], the IC50 with chromodomain of CBX5 [2] was more than 60000 nM.
For the molecule {3‑Me‑Bz}-FALK(diethyl)S-OMe (reading uncertain) [compound 29], the IC50 with chromodomain of CBX5 [3] was more than 60000 nM; in the experiment with chromodomain of CBX4 [4], 2700 nM; with chromodomain of CDYL2 [5], 340 nM; with chromodomain of CBX7 [6], 740 nM.
Bz-G[NMeF]AL[Lys(Me3)]S-OMe [compound 9]: the IC50 in the experiment with chromodomain of CBX5 [2] is more than 60000 nM.
Take {4‑tBu‑Bz}-FALK(diethyl)S-OH (reading uncertain) [compound 44]: the IC50 was more than 60000 nM with chromodomain of CBX5 [7], 240 nM in the experiment with chromodomain of CBX4 [8], 740 nM in the experiment with chromodomain of CDYL2 [9] and 130 nM with chromodomain of CBX7 [10].

A word on the IC50: it is the midpoint of a concentration-inhibition curve. A higher IC50 goes with a need for much substance.
